In publication PMC11066147 one finds Kd, koff and kon data, which are given here for eight substances.

Values joined by “and” are separate entries in the source; they are usually repeats but may differ in a detail not shown here. Equal entries are not always repeated. Where two headings read alike, the source gives them in different places.

Assay in all cases: SPR
For orientation: SPR reads the build-up and loss of mass on a sensor chip optically.

The target of test [1] is DnaKLS (linker switch mutant of DnaK harbouring the PfHsp70-z linker) (E. coli) (UniProt P0A6Y8).
In test [2] the target is PfHsp70-1LS (linker switch mutant of PfHsp70-1 carrying the linker of PfHsp70-z) (Plasmodium falciparum) (UniProt Q8IB24).
Test [3] concerns the target PfHsp70-zLS (linker switch mutant of PfHsp70-z carrying the linker of canonical Hsp70) (Plasmodium falciparum) (UniProt Q8IC01).
The target in test [4] is DnaKLS (linker switch mutant of DnaK harbouring the PfHsp70-z linker) (E. coli) (UniProt P0A6Y8). This is another data set of the same source.
Test [5] concerns the target PfHsp70-1LS (linker switch mutant of PfHsp70-1 carrying the linker of PfHsp70-z) (Plasmodium falciparum) (UniProt Q8IB24). The source holds these as a separate data set.
Test [6] deals with PfHsp70-zLS (linker switch mutant of PfHsp70-z carrying the linker of canonical Hsp70) (Plasmodium falciparum) (UniProt Q8IC01). This is another data set of the same source.

One may read the Kd as the constant that tells how readily two partners part at equilibrium. Low values mean higher affinity, high ones lower affinity. As usually defined, the koff is a measure of how fast the partners let go of each other. Lower therefore signals slow dissociation. As a reminder, the kon is the rate constant with which the complex forms.

Turning to ALLLMYRR (peptide), the dissociation constant Kd in test [1] amounted to 2440 nM; in test [2] it was 99.3 nM; in test [3] it was 41.6 nM; in test [4] it was 1950 nM; in test [5], 89.4 nM; in test [6], 36.5 nM.
ANNNMYRR (peptide): the dissociation constant Kd in test [1] stood at 1690 nM; in test [2], 977 nM; in test [3], 3.3 nM; in test [4], 1770 nM; in test [5], 778 nM.
With “DnaKLS (linker switch mutant of DnaK harbouring the PfHsp70-z linker) (from UniProt P0A6Y8 1-638) (natural protein)”, the off-rate constant (koff) in test [4] is 0.0714 s⁻¹ and 0.0903 s⁻¹ and 0.0492 s⁻¹.
For “E. coli Hsp70 (DnaK) (from UniProt P0A6Y8 1-638) (natural protein)”, in test [4], the kon is 45700 M⁻¹ s⁻¹ and 73200 M⁻¹ s⁻¹ and 63200 M⁻¹ s⁻¹.
NRLLTG (peptide): the Kd in test [1] came out at 962 nM; in test [2], 174 nM; in test [3] it was 21.1 nM; in test [4] it was 891 nM; in test [5] it was 682 nM; in test [6], 20.7 nM.
For NRNNTG (peptide), the dissociation constant Kd in test [1] was determined as 855 nM; in test [2], 466 nM; in test [3], 25.6 nM; in test [4] it was 716 nM; in test [5], 132 nM; in test [6], 59.5 nM.
In the case of “PfHsp70-1LS (linker switch mutant of PfHsp70-1 carrying the linker of PfHsp70-z) (from UniProt Q8IB24 1-677) (natural protein)”, in test [5], the Kd is 42400 nM and 17200 nM and 59000 nM; the koff is 0.0447 s⁻¹ and 0.0633 s⁻¹ and 0.0666 s⁻¹.
As to “Plasmodium falciparum heat shock protein 70-1 (PfHsp70-1) (from UniProt Q8IB24 1-677) (natural protein)”, in test [5], the dissociation constant (Kd) was 4700 nM and 3370 nM and 998 nM; the dissociation rate constant (koff) is 0.0935 s⁻¹ and 0.0539 s⁻¹ and 0.0392 s⁻¹; the on-rate (kon) is 19900 M⁻¹ s⁻¹ and 16000 M⁻¹ s⁻¹ and 39500 M⁻¹ s⁻¹.
